According to patent US20180298083A1:
Like-named read-outs stand apart in the source and are kept apart here.

Assays:
[1] = target: D167N (HIV-1); experiment: gp120 capture ELISA
[2] = target: D279A (HIV-1); experiment: gp120 capture ELISA
[3] = target: D368A (HIV-1); experiment: gp120 capture ELISA
[4] = target: D457A (HIV-1); experiment: gp120 capture ELISA
[5] = target: D474A (HIV-1); experiment: gp120 capture ELISA
[6] = target: E370A (HIV-1); experiment: gp120 capture ELISA
[7] = target: G366A (HIV-1); experiment: gp120 capture ELISA
[8] = target: G367A (HIV-1); experiment: gp120 capture ELISA
[9] = target: G471A (HIV-1); experiment: gp120 capture ELISA
[10] = target: G472A (HIV-1); experiment: gp120 capture ELISA
[11] = target: G473A (HIV-1); experiment: gp120 capture ELISA
[12] = target: I371A (HIV-1); experiment: gp120 capture ELISA
[13] = target: I467A (HIV-1); experiment: gp120 capture ELISA
[14] = target: K282A (HIV-1); experiment: gp120 capture ELISA
[15] = target: M373A (HIV-1); experiment: gp120 capture ELISA
[16] = target: M475A (HIV-1); experiment: gp120 capture ELISA
[17] = target: N197T (HIV-1); experiment: gp120 capture ELISA
[18] = target: N262A (HIV-1); experiment: gp120 capture ELISA
[19] = target: N280A (HIV-1); experiment: gp120 capture ELISA
[20] = target: N332A (HIV-1); experiment: gp120 capture ELISA
[21] = target: P369A (HIV-1); experiment: gp120 capture ELISA
[22] = target: R469A (HIV-1); experiment: gp120 capture ELISA
[23] = target: R476A (HIV-1); experiment: gp120 capture ELISA
[24] = target: S365A (HIV-1); experiment: gp120 capture ELISA
[25] = target: T283A (HIV-1); experiment: gp120 capture ELISA
[26] = target: V372A (HIV-1); experiment: gp120 capture ELISA
[27] = target: monomeric gp120^JRCSF (HIV-1 strain JRCSF) (UniProt P20871); experiment: gp120 capture ELISA
[28] = target: gp120 Resurfaced Stabilized Core (RSC3); experiment: ELISA on coated RSC3
[29] = target: 6631.V3.C10 (HIV-1)
[30] = target: CAAN.A2 (HIV-1)
[31] = target: gp120 of X2088 (HIV-1 strain X2088.c9)
[32] = target: 6631.V3.C10 (HIV-1); remark: listed apart in the source
[33] = target: gp120 of X2088 (HIV-1 strain X2088.c9); remark: listed apart in the source
[34] = target: T250-4 (HIV-1)
[35] = target: 6631.V3.C10 (HIV-1); remark: listed apart in the source
[36] = target: CAAN.A2 (HIV-1); remark: listed apart in the source
[37] = target: T250-4 (HIV-1); remark: listed apart in the source

For 3BNC117 (antibody), the Binding affinity relative to WT (%) [1] was 95%, the Binding affinity relative to WT (%) [2] was 0% and the Binding affinity relative to WT (%) [3] was 16%. The Binding affinity relative to WT (%) [4] was 84%, the Binding affinity relative to WT (%) [5] was 38% and the Binding affinity relative to WT (%) [6] was 31%. For the same substance, the Binding affinity relative to WT (%) [7] was 27%, the Binding affinity relative to WT (%) [8] was 25% and the Binding affinity relative to WT (%) [9] was 164%. For the same substance, the Binding affinity relative to WT (%) [10] was 56%, the Binding affinity relative to WT (%) [11] was 40% and the Binding affinity relative to WT (%) [12] was 40%. For the same substance, the Binding affinity relative to WT (%) [13] was 87%, the Binding affinity relative to WT (%) [14] was 3% and the Binding affinity relative to WT (%) [15] was 133%. For the same substance, the Binding affinity relative to WT (%) [16] was 169%, the Binding affinity relative to WT (%) [17] was 101% and the Binding affinity relative to WT (%) [18] was 33%. The Binding affinity relative to WT (%) [19] was 36%, the Binding affinity relative to WT (%) [20] was 82% and the Binding affinity relative to WT (%) [21] was 75%. It also gave a Binding affinity relative to WT (%) [22] of 97%, a Binding affinity relative to WT (%) [23] of 171% and a Binding affinity relative to WT (%) [24] of 90%. It also gave a Binding affinity relative to WT (%) [25] of 71%, a Binding affinity relative to WT (%) [26] of 62% and a Binding affinity relative to WT (%) [27] of 100%.
Substance 2G12 (antibody) has a Binding affinity relative to WT (%) [20] of 3%, a Binding affinity relative to WT (%) [27] of 100% and an EC50 (read off the curve) [28] of 0.03 µg/mL.
For “N6 heavy chain with 12A21 light chain (antibody)”, the neutralisation IC50 [29] was 3.11 µg/mL, the neutralisation IC50 [30] was 3.71 µg/mL and the neutralisation IC50 [31] was 0.314 µg/mL.
N6 with CDRL3 of VRC01 (antibody) gave a neutralisation IC50 [32] of 0.139 µg/mL and a neutralisation IC50 [33] of 0.125 µg/mL.
“12A21 heavy chain with N6 light chain (antibody)” was tested, and the neutralisation IC50 [30] was 11 µg/mL.
In the case of 12A21 (antibody), the neutralisation IC50 [29] is reported as 2.37 µg/mL, the neutralisation IC50 [30] is reported as 0.539 µg/mL and the neutralisation IC50 [34] is reported as greater than 50 µg/mL. For the same substance, the neutralisation IC50 [31] was greater than 50 µg/mL, the Binding affinity relative to WT (%) [1] was 108% and the Binding affinity relative to WT (%) [2] was 188%. The Binding affinity relative to WT (%) [3] was 30%, the Binding affinity relative to WT (%) [4] was 23% and the Binding affinity relative to WT (%) [5] was 19%. For the same substance, the Binding affinity relative to WT (%) [6] was 16%, the Binding affinity relative to WT (%) [7] was 6% and the Binding affinity relative to WT (%) [8] was 2%. For the same substance, the Binding affinity relative to WT (%) [9] was 162%, the Binding affinity relative to WT (%) [10] was 97% and the Binding affinity relative to WT (%) [11] was 53%. For the same substance, the Binding affinity relative to WT (%) [12] was 17%, the Binding affinity relative to WT (%) [13] was 49% and the Binding affinity relative to WT (%) [14] was 29%. For the same substance, the Binding affinity relative to WT (%) [15] was 63%, the Binding affinity relative to WT (%) [16] was 76% and the Binding affinity relative to WT (%) [17] was 131%. It also gave a Binding affinity relative to WT (%) [18] of 167%, a Binding affinity relative to WT (%) [19] of 174% and a Binding affinity relative to WT (%) [20] of 206%. It also gave a Binding affinity relative to WT (%) [21] of 122%, a Binding affinity relative to WT (%) [22] of 66% and a Binding affinity relative to WT (%) [23] of 73%. The Binding affinity relative to WT (%) [24] was 454%, the Binding affinity relative to WT (%) [25] was 68% and the Binding affinity relative to WT (%) [26] was 36%. It also gave a Binding affinity relative to WT (%) [27] of 100%.
For N6 GGG60-62AHS VRC27 (antibody), the neutralisation IC50 [35] was 0.089 µg/mL.
In the case of VRC08 N6CDRH3 (antibody), the neutralisation IC50 [36] is reported as greater than 50 µg/mL.
Work on “CD4-Ig (from UniProt P01730 26-203) (Fc fusion; other documents disagree on this pair)” yielded a Binding affinity relative to WT (%) [27] of 100%.
Substance N6 with CDRH3 of VRC01 (antibody) has a neutralisation IC50 [37] of 4.52 µg/mL.
For VRC01 ARP60-62GGGHC (antibody), the neutralisation IC50 [36] was 3.23 µg/mL.
Work on b12 (antibody) yielded an EC50 (read off the curve) [28] of 0.01 µg/mL.
With VRC01 N6CDRH3 (antibody) the neutralisation IC50 [36] was 2.23 µg/mL.
